Source: patent US20060015952A1, “Screening assays and methods of tumor treatment” (GENENTECH, INC., priority 2003, published 2006)

Legend:
TGF-beta = experiment: Mouse messangial cell proliferation assay; format: cell-based; settings: antibody 20 μg/ml; TGF-beta at 1 ng/ml level; 48 hours
Method: A mouse messangial cell proliferation assay was used to test a control antibody and several humanized antibodies (V5H.V5L, V5H.gIL2, H2NI.V5L, V5H.gIL1gIL2, and H2N1.gIL gIL2). The protocol is as follows:
On day 1: Mouse messangial cells were plated on a 96-well plate in Media (a 3:1 mixture of Dulbecco's modified Eagle's medium and Ham's F12 medium-95%-fetal bovine serum-5%-supplemented with 14 mM HEPES buffer) and grown overnight.
On day 2: TGF-beta with three different concentrations (100 ng, 10 ng and 1 ng) and five different types of humanized TGF antibody (20 μg/ml) were diluted in serum-free Media and added to the cells. A mouse TGF antibody was used as a control (2G7).
On day 4: After 48 hours incubation, 20 μl of reaction buffer (CELLTITER 96® AQUEOUS ONE SOLUTION REAGENT™ containing a tetrazolium compound 3-(4,5-dimethylthiazol-2-yl)-5-(3-carboxymethoxyphenyl)-2-(4-sulfophenyl)-2H-tetrazolium, inner salt, and an electron coupling reagent (phenazine ethosulfate) (Promega Inc. Cat number G3580)) was added to each well of the plate and allowed to incubate for 2 hours. The absorbance (OD) was measured at 490 nm.

[1] = system: TGF-beta extracellular domain (ECD); experiment: Binding ELISA of chimeric and humanized 2G7 versions; settings: for binding to TGF-beta of CDR mutants of hu2G7 Version 5 IgG: germline revertants / CDR H2 mutant
Method: DNA sequencing of the chimeric clone allowed identification of the CDR residues (Kabat et al., supra). Using oligonucleotide site-directed mutagenesis, all six of these CDR regions were introduced into a complete human framework (VL kappa subgroup I and VH subgroup III) contained on plasmid VX4 as previously described (Presta et al., Cancer Research, 57: 4593-4599 (1997)). Protein from the resultant “CDR-swap” was expressed and purified as above. Binding studies were performed to compare the two versions. Briefly, a NUNC MAXISORP™ plate was coated with 1 microgram per ml of TGF-beta extracellular domain (ECD; produced as described in WO 90/14357) in 50 mM of carbonate buffer, pH 9.6, overnight at 4° C., and then blocked with ELISA diluent (0.5% BSA, 0.05% POLYSORBATE™ 20, PBS) at room temperature for 1 hour. Serial dilutions of samples in ELISA diluent were incubated on the plates for 2 hours. After washing, bound Fab fragment was detected with biotinylated murine anti-human kappa antibody (ICN 634771) followed by streptavidin-conjugated horseradish peroxidase (Sigma) and using 3,3′,5,5′-tetramethyl benzidine (Kirkegaard & Perry Laboratories, Gaithersburg, Md.) as substrate. Absorbance was read at 450 nm.

TGF-beta1 through -beta3 = experiment: 3T3 cell proliferation assay, neutralization of TGF-betas; format: cell-based, mouse; settings: 3T3 cells stimulated with one of three TGF-betas
Method: Various humanized antibodies were tested for their activity in neutralizing various TGF-betas versus 2G7 using the 3T3 cell line from fibroblasts of disaggregated Swiss mouse embryos stimulated with one of three TGF-betas in vitro and then their proliferation was measured as activity.

Molecule | blocking of cell inhibition induced by TGF-beta (TGF-beta) | binding to TGF-beta compared to chimeric 2G7 Fab fragment ([1]; humanized versions (FR mutants)) | binding to TGF-beta of CDR mutants of hu2G7 Version 5 IgG [1] | activity in neutralizing TGF-betas versus 2G7 (TGF-beta1 through -beta3)
Version 5: humanized 2G7, ArgH71Ala, AlaH49Gly, PheH67Ala; SEQ ID Nos. 3 and 4 (antibody, V domains shown, Sequence is synthesized) VL: DIQMTQSPSSLSASVGDRVTITCRASQSVLYSSNQKNYLAWYQQKPGKAPKLLIYWASTRESGVPSRFSGSGSGTDFTLTISSLQPEDFATYYCHQYLSSDTFGQGTKVEIKRTVA VH: EVQLVESGGGLVQPGGSLRLSCAASGYAFTNYLIEWVRQAPGKGLEWVGVNNPGSGGSNYNEKFKGRATISADNSKNTLYLQMNSLRAEDTAVYYCARSGGFYFDYWGQGTLVTVSSASTKGPS | blocked cell inhibition similarly to the control | binding restored to that of the original chimeric 2G7 Fab fragment |  | 
V5H.g1L2: Same as Version 5 except the CDR L2 is reverted to human germline kappa locus sequence YASSLQS (antibody, V domains shown) VH: EVQLVESGGGLVQPGGSLRLSCAASGYAFTNYLIEWVRQAPGKGLEWVGVNNPGSGGSNYNEKFKGRATISADNSKNTLYLQMNSLRAEDTAVYYCARSGGFYFDYWGQGTLVTVSS VL: DIQMTQSPSSLSASVGDRVTITCRASQSVLYSSNQKNYLAWYQQKPGKAPKLLIYYASSLQSGVPSRFSGSGSGTDFTLTISSLQPEDFATYYCHQYLSSDTFGQGTKVEIK |  |  | bound to TGF-beta as well as V5H.V5L | comparable activity, with V5H.gIL2 being the least effective
V5H.g1L1glL2: Same as Version 5 except CDR L1 and CDR L2 reverted to human germline kappa locus sequences (antibody, V domains shown) VH: EVQLVESGGGLVQPGGSLRLSCAASGYAFTNYLIEWVRQAPGKGLEWVGVNNPGSGGSNYNEKFKGRATISADNSKNTLYLQMNSLRAEDTAVYYCARSGGFYFDYWGQGTLVTVSS VL: DIQMTQSPSSLSASVGDRVTITCRASQGISSYLAWYQQKPGKAPKLLIYYASSLQSGVPSRFSGSGSGTDFTLTISSLQPEDFATYYCHQYLSSDTFGQGTKVEIK |  |  | did not bind as well as the chimera | 
